From article PMC6203356

Target: CENP-A (endogenous, soluble pre-assembly fraction) (human (endogenous in SW480)) (UniProt P49450)
Test: co-IP; CENP-A IP (ACA serum) or mock IP from the soluble fraction (PBS, 0.5% NP-40) of SW480 cells treated 72 hours with control or HJURP siRNA; Western blot for the chaperones

UniProt P49450, sequence (P49450 whole entry): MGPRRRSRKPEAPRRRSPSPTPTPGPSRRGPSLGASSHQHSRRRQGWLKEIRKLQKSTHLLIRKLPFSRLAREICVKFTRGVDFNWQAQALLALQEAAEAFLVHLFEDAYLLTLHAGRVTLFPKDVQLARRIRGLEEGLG

With “HIRA (endogenous) (from UniProt P54198 1-1017) (natural protein)” the fold increase in the amount bound to CENP-A after HJURP knockdown against control siRNA was 2.4 fold.
